Laboratory results published in patent US20250282871A1, “PHARMACEUTICAL COMBINATION AND USE THEREOF” (TIANJIN LIPOGEN TECHNOLOGY CO., LTD, priority 2021, published 2025).

B1: Camrelizumab: marketed PD-1 monoclonal antibody (antibody, chains of the INN, looked up, V domains shown)
VH: EVQLVESGGGLVQPGGSLRLSCAASGFTFSSYMMSWVRQAPGKGLEWVATISGGGANTYYPDSVKGRFTISRDNAKNSLYLQMNSLRAEDTAVYYCARQLYYFDYWGQGTTVTVSS
VL: DIQMTQSPSSLSASVGDRVTITCLASQTIGTWLTWYQQKPGKAPKLLIYTATSLADGVPSRFSGSGSGTDFTLTISSLQPEDFATYYCQQVYSIPWTFGGGTKVEIK
B2: Tislelizumab: marketed PD-1 monoclonal antibody (antibody, chains of the INN, looked up)
heavy: QVQLQESGPGLVKPSETLSLTCTVSGFSLTSYGVHWIRQPPGKGLEWIGVIYADGSTNYNPSLKSRVTISKDTSKNQVSLKLSSVTAADTAVYYCARAYGNYWYIDVWGQGTTVTVSSASTKGPSVFPLAPCSRSTSESTAALGCLVKDYFPEPVTVSWNSGALTSGVHTFPAVLQSSGLYSLSSVVTVPSSSLGTKTYTCNVDHKPSNTKVDKRVESKYGPPCPPCPAPPVAGGPSVFLFPPKPKDTLMISRTPEVTCVVVAVSQEDPEVQFNWYVDGVEVHNAKTKPREEQFNSTYRVVSVLTVVHQDWLNGKEYKCKVSNKGLPSSIEKTISKAKGQPREPQVYTLPPSQEEMTKNQVSLTCLVKGFYPSDIAVEWESNGQPENNYKTTPPVLDSDGSFFLYSKLTVDKSRWQEGNVFSCSVMHEALHNHYTQKSLSLSLG
light: DIVMTQSPDSLAVSLGERATINCKSSESVSNDVAWYQQKPGQPPKLLINYAFHRFTGVPDRFSGSGYGTDFTLTISSLQAEDVAVYYCHQAYSSPYTFGQGTKLEIKRTVAAPSVFIFPPSDEQLKSGTASVVCLLNNFYPREAKVQWKVDNALQSGNSQESVTEQDSKDSTYSLSSTLTLSKADYEKHKVYACEVTHQGLSSPVTKSFNRGEC

System: colorectal carcinoma MC38
Assay: Example 7.2.1: MC38 subcutaneous xenograft, marketed PD-1 inhibitors and 2′,3′-cGAMP
Assay type: in vivo, mouse
Details: intratumor injection; PD-1 antibody 10 mg/kg, 2′,3′-cGAMP 1 mg/kg; every other day, 3 times
Experimental: Tumor cells were cultured and passaged, cells were collected at the logarithmic phase, and formulated into a concentration of (1.0×10^7) per milliliter of cell suspension with 0.1 ml (with a cell number of 1.0×10^6) being injected into the right flank of the mice, the tumor grew to a diameter of about 5 mm within about 10 days, and the model was successfully established, they were randomly divided into 8 groups with 8 mice per group.
Trend of changes in body weight and tumor volume of mice, survival rate of mice, and inhibitory rate of anatomical tumor weight.
Drug interaction coefficient: CDI(CI)=AB/A*B. AB is the ratio of the combination group of two drugs to the control group, as calculated based on the anatomical tumor weight. A or B is the ratio of single drug group to control group.
After successfully establishing a subcutaneous xenograft tumor model of colorectal carcinoma MC38 in mice, they were randomly grouped with 6-8 mice per group and administered once every two days, a total of 3 times.

| Molecule | IRTW % (tumor weight inhibitory rate) [%] | Tumor Weight [g] |
| --- | --- | --- |
| B1 | 19.6 | 1.23 |
| B2 | 61.4 | 0.59 |
